From the nanobody polyreactivity screen of Harvey et al. (2022)

test: yeast display, Sf9 membrane polyspecificity reagent, FACS + sequencing; frameworks hold sequencing errors
In short: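 Genes from sorted yeast were amplified by colony PCR, read by MiSeq 2 × 250 sequencing and filtered on CDR length. These cells carried a synthetic nanobody library in Saccharomyces cerevisiae BJ5465 and were sorted by FACS into low and high (top ~1%) gates on anti-HA and streptavidin fluorescence. Polyreactivity is labelled according to the gate of origin.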

Row | Sequence | polyreactivity (PSR sort gate)
1 | QVQLVESGGGLVQAGGSLRISCAASGSIFAWNAMGWYRQAPGKERELVAAISRSGGRTYYADSVKGRFTISRDNAKNTVYLQMNSLKPEDTAVYYCNAYGLRWASRLGYDYWGQGTQVTVSS | high polyreactivity
2 | QVQLVESGGGLVQAGGSLRLSCAASGYTFGYYAMGWYRQAPGKERELVAAISLNGGSTYYADSVKGRFTISRDNAKNTVYLQMNSLKPEDSAVYYCNALYNYAEIYGRGYCGQGTQVTVSS | high polyreactivity
3 | QVQLVESGGGLVQAGGSLRLSCAASGFIFYGYAMGWYIQAPGKERELVATISRRGGSTYYADSVKGRFTISRDNAKNTVYLQMNSLKPEDSAVYYCAKRRGTQEPTYVPTRSNGFDYWGHGTQVTVSS | low polyreactivity
4 | QVQLVESGGGLVQAGGSLRLSCAASGSIFPWNTMGWYRQAPGKERELVARISTSGASTYYADSVKGRFTISRDNAKNTVYLQMNSLKPEDTAVYYCAKVRHYGGRSWWYYYWGQGTQVTVSS | high polyreactivity
5 | QVQLVESGGGLVQAGGSLRLSCAASGSIFKRNAMGWYRQAPGKERELVASISSGGSTHYADSVKGRFTNSRDNAKNTVYLQMNSLKPEDTAVYYCAATSIRWSVGSFRRDYWGQVTQVTVSS | low polyreactivity
6 | QVHLVESGGGLVQAGGSLRLSCAASGSIFFVNAMGWYRQAPGKERELVADISSGGSTNYADSVKGRFTISRDNAKNTVYLQMNSLKPEDTAVYYCNTDEPPIYERFPYDYWGQGTQVTVSS | low polyreactivity
7 | QVQLVESGGGLVQAGGTLRISCAASGRTFGIYAMGWSRQAPGKERELVAAITGRGGSTHYADSVKGRFTISRDNAKNTVYLQMNSLQPEDTAVYYCAADYRYNRGITSNKDYEYWGQGTQVSVSS | low polyreactivity
8 | QVQLVESGGGLVQAGGSLRLSCAASGLTFYHYHMGWYRQAPGKERELVAAITIGGSTYYADSVKGRFTISRDNAKNTVYLQMNSLKPEDTEVYYCAAEPQRDSSGLDYWGQGTQVTVSS | low polyreactivity
9 | QVQLVESGGGLVQAGGSLRLSCAASGRIFTTYAMGWYRQAPGKERELVAAISRSGGSTYYADSVKGRFTISRDNAKNTVYLQMNSLKPEDTAVYYCAAVPTSNSFRSSFYYWGQGTQVTVSS | high polyreactivity
10 | QVQLVESGGGLVQAGGRVRLSCAASVSTFKQYSMGWYRQATGKERELVAAITRGGRTNYAYSVKGRFTISRDNAKNTVSLQMNSLKQEDTAVYYCAKLLSGYGRWWYDYWGQGTQVTLSS | high polyreactivity
11 | QVQLVESGGGLVQAGGSLRLSCAASGRTFRSNAMGWYRQAPGKERELVAVITRSGGSTDYADSVKGRFTISRDNAKNTVYLQMNSLKPEDTAVYYCAVRRYDYWGQVTQVTVSS | high polyreactivity
12 | QVQLVESGGGLVQAGGSLRLSCAASGSTFHPYAMGWYRQAPGKERELVAAITWRVGSTYYADSVKGRFTISRDNAKNTVYLLINCLKPEDTAVYYCAVSYLSTLGRSRYDYWGQGTQVSVSS | low polyreactivity
13 | QVQLVESGGGLVQAGGSLRLSCAASGSIFNGYVMGLYRQAPGKERELVAAISSGGRTYYADSVKGRFTISRDNAKNTVYLQMNSLKPEDTAVYYCAADIWYFDYDYWGQGTQVTVSS | high polyreactivity
14 | QVQLVESGGGLVQAGGSLRLSCAASGGTFGSNTMGWYRQAPGKERELVAAITSGVSTNYADSVKGRFTISRDNAKNTVYLQMISLKPEDTAVYYCAKDLWSEEYETIITSYGFDYWGQGTQVTLSS | low polyreactivity
15 | QVQLVESGGGLVQAGGSLRLICAASGSIFRYYAMGWYRQAPGKERELVAVITRSSSTYYADSVKGRFTISRDNAKNTVYLQMNSLKPEDTAVYDCAARYRSGAAGYNYWGQGTQVTVSS | high polyreactivity
16 | QVQLVESGGGLVQAGGSLRLSCAASGTFAGNAMGWYRQAPGKERELVAAITTGGRTYYADSVKGRFTISRDNAKNTVYLQMNSLKPEDTAVYYCAADRIRDLEFDYWGQGTQVTVSS | low polyreactivity
17 | QVQLVESGGGLVQAGGSLSLSCAASGRILSLNAMGWYRQAPGKERELVAGIRKRGGSTYYADSVKGRFTISRDNAKNTVYLQMNSLKPEDTAVYYCAADGTLFSEYYWFFGYHDYWGQGTQVNVSS | high polyreactivity
18 | QVQLQESGGGLVQAGGSLGCAASGNISTRSEMGWYRQAPGKDREFVATINSGGITNYADSVNGRFTISRDNAKKTVYLRMNSLKTEDTAVYYRAVFGYLSDPNDYCGQGTQVTVSS | low polyreactivity
19 | QVQLLESGGGLVQAGGSLRLSCMASGSILGDRMSWYRQAPGKEHELVATIYDGGITYYADSMKGRFTISRDNAKNTLYLQMNSLRPEDTAVYYCGACFEGYRYHVYCGQGTQVTVSS | low polyreactivity
20 | QVQLVESGGGLVQAGGSLRLSCAASGRIFNSNAMGWYRQAPGKERELVAAISSSGTRTYYADSVKGRFTISRDNAKNTVYLQMNSLKPEDTAVYYCNTYYKYAVVPSGGYWGQGTQVTVSS | high polyreactivity

Row | Sequence | polyreactivity (PSR sort gate)
21 | QVQLVESGGGLVQAGGSLRLSCAASGRTFSGYAMGWYRQAPGKERELVAVITYSGGSTYYADSVKGRFTISRDNAKNTVYLQMNSLKPEDTAVYYCNADYVIFYQLVDYDYWGQGTQVTVSS | low polyreactivity
22 | QVQLVESGGGLVQAGGSLRLSCASSGRIFGVYAMGWYRQAPGKERELVAAITRGASTYYADSVKGRFTISRDNAKNTVYLQMNSLKPEDTAVYYCAVSQDRGIYRKYDYWGQGTQVTVSS | high polyreactivity
23 | QVQLVESGGGLVQAGGSLRLSCAASGSTFNRNTMGWYRQAPGKERELVASINRGGSTYYADSVKGRFTISRDNAKNTVYLQMNSLKPEDTAVYYCAKRVRKSYTGTQAPKKFGYWGQGSQVTVSS | low polyreactivity
24 | QVQLVESGGGLVQAGGSLRISCAASGNTFEHNAMGWYRQAPGKERELVAVISKSGGRTYYADSVKGRFTISRDNAKNTVYLQMNSLKPEDTAVYYCAKRSPFITWNGISYVEYDYWGPGTQVTVSS | low polyreactivity
25 | QVQLVESGGGLVQAGGSLRLSCAASGFIFYRNTKGWYRQAPGKEREFVAAIRWRGGSTYYADSVKGRFTISRDNAKNTVYLQMNSLNPEDTAVYYCNAPYKQDYDYWGQGTQVTVSS | high polyreactivity
26 | QVQLVESGGGLVQAGGSLRLSCAASGFTFAWYTMGWYRQAPGKERELVAAITDSGDSTYYADSVKGRFTISRDNAKNTVYLQMNSLKPEDTAVYYCATRTWYWDIWITEYDYWGQGPQVTVSS | low polyreactivity
27 | QVQLVESGGGLVQAGGSLRLSCAASGFIFGHNDMGWYRQAPGKERELVASISKSGGDTYYADSVKGRFTISRDNAKNTVYLQMNSLKPEDTAVYYCAADGPDAYYYHRYIYFRRSYYWGHGTQVTVSS | low polyreactivity
28 | QVQLVESGGGLVQAGGSLRLSCAASGSIFDIYGMGWYRQAPGKESELFASISGGAGSTNYADSVKGRFTISRDNAKNTVYLQMNSLKPEDTAVYYCAAEVYVPDYFQHKFDVEYEYWGQGTQVTVSS | low polyreactivity
29 | QVQLVESGGGLVQAGGSLRLSCAASGRIFGHYVMGWYRQAPGTERELVAAISYSGGSTYYAHSVKGRFTISRDNAKNTVYLQMNSLKPEDTAVYYCAAYVYRYHRVAYEYWGQGTQVTVSS | high polyreactivity
30 | QVQLVESGGGLVQAGFSLRLSCAASGSIFDYYTMGCYRQAPGKERELVATIRSGDSTNYADSVKGRFTISRDNAKNTVYLQMNSLKPEDTAVYYFAADDGAYPTLYDYWGQGTQVTVSS | low polyreactivity
31 | QVQLVESGGCLVQAGGSIRLSFAASGSISIRNAMGWYRQAPGTERELVAAISRGGSTYYADSVKGRFTISRDNAKNTVYLQMNSLNPEDTAVYYFATDGGLYYRGREYAFKYFYWGQGTQLTVSS | high polyreactivity
32 | QVQLVESGGGLVQAGGSLRLSCAASGSTFATNAMGWDRQAPGKERELVASISSGGSTTYADSVKGRFTISRDNAKNTVYLQMNSLKPEDTAVYYCNKRYLWRNSRGFDYWGQGTQVTVSS | low polyreactivity
33 | QVQLVESGGGLVQAGGSLRLSCPASGITFIYYAMGWYRQAPGKEREFVAAINYRGTSTYYADSVKGRFTISRDNPKNTVYLQMNSLKPEDTAVYYCAAGPRRTWYRSLGYSFYKYYYWGQGTQVTVSS | high polyreactivity
34 | QVQLVESGGGLVQAGGSLRLSCAASGSIFPFYAMGWYRQAPGKERELVAAISDRGGSTYYADSVKGRFTISRDNAKNTVYLQMNSLKPEDTAVYYGAKGGEVSQGYTDEYDYWGQGTQVTVSS | low polyreactivity
35 | QVQLVEAGGRLVQAGGSLRLSCAASGGTFGTNNMGWYRQAPGKEMEVVAAISKRGGRTYYADSVKGRFTISRDNAKNTVYLQMNSLKPEDTAVYYCAADTGGNPKYDYWGQGTQVTVSS | high polyreactivity
36 | QVQLEESGGGLVQAGGSLRLSCAASGRIFVSNAMGWYRQAPGKERELVAAITDSGGSTYYADSVKGRFTISRDNAKNTVYLQMNSLKPEDTAVYYCATRTLFRYPNYGNNLWGYDYWGLGTQVTVSS | low polyreactivity
37 | QVQLVESGGGLVQAGGSLRLSCAASGRTIGYNDLGWYRQAPGKERELVAAIDWSGGSTYYADSVKGRFTISRDNAKNTVYLQMNSLKPEDTAVYDCAALVWRDEYDYLGQGTQVTVSS | low polyreactivity
38 | QVQLVDSGGGLVQAGGSLRLSCAASGLTFGFNAMGWYRQAPGKERELVAAISSGGSTYYADSVKGRFTISRDNAKNTVYLQMNSLKPEDTAVYYCATSVRQYGRTTYYYWGQGTQVTVSS | high polyreactivity
39 | QVQLVESGGGLVQAGGSLRLSCDASGSIFYIYAMGWSRQAPGKERELVATISGSGGSTHYADSVKGRFTISRDNAKNTVYLQMNSLKPEDTAVYYCDADVLPYGYYWGQGTQVTVSS | low polyreactivity
40 | QVQLVESGGGLVQAGGSLRLSCAASGSIFHYNAMGWYRQAPGKEREFVAVISKSSGSTFYADSVKGRLTISRDNAKNTVYLQMNSLKPEDTAVYYCNRVTKRYRKIGNYWGQGTQVTVSS | high polyreactivity
